For 3 molecules, EC50 results are on record in patent US20250092140A1 (published 2025).

Broadly, the EC50 is the concentration giving half of the maximal effect. Read a high EC50 as weaker potency.

In one experiment the target is T1, human-NKP30-His (human, UniProt O14931 19-138).
T1 chain: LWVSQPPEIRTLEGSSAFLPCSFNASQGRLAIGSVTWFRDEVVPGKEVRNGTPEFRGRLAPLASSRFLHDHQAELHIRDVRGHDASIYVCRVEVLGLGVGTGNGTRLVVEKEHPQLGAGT
Nature of the experiment: ELISA. A general note: An ELISA detects its analyte on a solid surface through an enzyme-linked reagent.

Another experiment addresses T2, HuB7H3-Fc (human, UniProt Q5ZPR3 29-245).
T2 chain: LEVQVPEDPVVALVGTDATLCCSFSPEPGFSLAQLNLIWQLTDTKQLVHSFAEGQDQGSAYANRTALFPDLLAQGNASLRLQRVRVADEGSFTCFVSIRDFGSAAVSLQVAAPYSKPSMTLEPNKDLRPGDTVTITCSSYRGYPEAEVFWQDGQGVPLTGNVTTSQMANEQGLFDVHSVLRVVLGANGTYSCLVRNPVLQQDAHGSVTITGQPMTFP
Nature of the experiment: sandwich ELISA; dual binding, HuB7H3-Fc coated, NKP30-his detected.

For a further experiment, the target named is T3, HuB7H3-his (human, UniProt Q5ZPR3 29-245).
T3 chain: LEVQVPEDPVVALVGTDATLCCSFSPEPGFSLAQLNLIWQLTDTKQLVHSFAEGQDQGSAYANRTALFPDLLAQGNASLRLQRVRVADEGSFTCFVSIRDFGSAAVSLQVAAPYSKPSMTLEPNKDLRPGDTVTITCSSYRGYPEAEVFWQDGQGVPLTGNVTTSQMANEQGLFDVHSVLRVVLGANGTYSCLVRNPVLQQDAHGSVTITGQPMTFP
Nature of the experiment: ELISA.

B1: NKP30 monoclonal antibody (antibody, V domains shown)
VH: EVQLVESGGGLVQPGGSLRLSCAASGITFSRSVMGWFRQAPGKLRELVAGITSDDNTDYADSVKGRFTISRDNSKNTLYLQMNSLRAEDTAVYYCNILPDSRLGWGQGTLVTVSS
In the experiment with human-NKP30-His, B1 showed an EC50 of 0.00258 µg/mL.

B2: constructed antibody D28 (bispecific antibody)
heavy: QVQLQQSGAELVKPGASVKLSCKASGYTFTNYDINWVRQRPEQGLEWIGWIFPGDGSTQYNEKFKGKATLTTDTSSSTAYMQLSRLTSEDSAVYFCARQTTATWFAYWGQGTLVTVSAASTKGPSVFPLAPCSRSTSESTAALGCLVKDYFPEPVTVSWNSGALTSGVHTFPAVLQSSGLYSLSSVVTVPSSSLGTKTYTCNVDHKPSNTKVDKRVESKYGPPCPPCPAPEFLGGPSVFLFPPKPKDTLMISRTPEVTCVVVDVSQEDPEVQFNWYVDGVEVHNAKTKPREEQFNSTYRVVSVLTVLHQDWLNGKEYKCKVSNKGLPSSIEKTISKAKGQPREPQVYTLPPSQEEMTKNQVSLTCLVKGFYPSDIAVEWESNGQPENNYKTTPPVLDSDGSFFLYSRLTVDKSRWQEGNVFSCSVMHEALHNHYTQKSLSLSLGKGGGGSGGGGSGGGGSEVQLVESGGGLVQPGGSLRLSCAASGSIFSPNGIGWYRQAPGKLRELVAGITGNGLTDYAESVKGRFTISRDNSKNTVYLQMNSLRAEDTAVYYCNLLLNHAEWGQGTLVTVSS
light: DIVMTQSPATLSVTPGDRVSLSCRASQSISDYLHWYQQKSHESPRLLIKYASQSISGIPSRFSGSGSGSDFTLSINSVEPEDVGVYYCQNGHSFPLTFGAGTKLELKRTVAAPSVFIFPPSDEQLKSGTASVVCLLNNFYPREAKVQWKVDNALQSGNSQESVTEQDSKDSTYSLSSTLTLSKADYEKHKVYACEVTHQGLSSPVTKSFNRGEC
Take B2: the EC50 with HuB7H3-Fc is 0.445 µg/mL.

B3: constructed antibody A25 (bispecific antibody)
heavy: not shown
light: DIVMTQSPATLSVTPGDRVSLSCRASQSISDYLHWYQQKSHESPRLLIKYASQSISGIPSRFSGSGSGSDFTLSINSVEPEDVGVYYCQNGHSFPLTFGAGTKLELKRTVAAPSVFIFPPSDEQLKSGTASVVCLLNNFYPREAKVQWKVDNALQSGNSQESVTEQDSKDSTYSLSSTLTLSKADYEKHKVYACEVTHQGLSSPVTKSFNRGEC
In the case of B3, the EC50 in the experiment with HuB7H3-his was 0.0526 µg/mL; with human-NKP30-His, 0.00817 µg/mL; in the experiment with HuB7H3-Fc, 0.19 µg/mL.
